According to patent publication US20230340160A1 (published 2023):

B1: “2+1 IgG Crossfab” (anti-MCSP/anti-huCD3); VH/VL exchange (LC007/V9) (bispecific antibody)
heavy 1: DIQMTQSPSSLSASVGDRVTITCRASQDIRNYLNWYQQKPGKAPKLLIYYTSRLESGVPSRFSGSGSGTDYTLTISSLQPEDFATYYCQQGNTLPWTFGQGTKVEIKSSASTKGPSVFPLAPSSKSTSGGTAALGCLVKDYFPEPVTVSWNSGALTSGVHTFPAVLQSSGLYSLSSVVTVPSSSLGTQTYICNVNHKPSNTKVDKKVEPKSCGGGGSGGGGSEVQLQESGPGLVKPSQSLSLTCSVTGYSITSGYYWNWIRQFPGNKLEWMGYITYDGSNNYNPSLKNRISITRDTSKNQFFLKLNSVTTEDTATYYCADFDYWGQGTTLTVSSASTKGPSVFPLAPSSKSTSGGTAALGCLVKDYFPEPVTVSWNSGALTSGVHTFPAVLQSSGLYSLSSVVTVPSSSLGTQTYICNVNHKPSNTKVDKKVEPKSCDKTHTCPPCPAPEAAGGPSVFLFPPKPKDTLMISRTPEVTCVVVDVSHEDPEVKFNWYVDGVEVHNAKTKPREEQYNSTYRVVSVLTVLHQDWLNGKEYKCKVSNKALGAPIEKTISKAKGQPREPQVCTLPPSRDELTKNQVSLSCAVKGFYPSDIAVEWESNGQPENNYKTTPPVLDSDGSFFLVSKLTVDKSRWQQGNVFSCSVMHEALHNHYTQKSLSLSPGK
heavy 2: not shown
light 1: DIVLTQSPSSLSASLGDRVTISCSASQGIRNYLNWYQQRPDGTVKLLIYYTSSLHSGVPSRFSGSGSGTDYSLTISNLEPEDIATYYCQQYSKLPWTFGGGTKLEIKRTVAAPSVFIFPPSDEQLKSGTASVVCLLNNFYPREAKVQWKVDNALQSGNSQESVTEQDSKDSTYSLSSTLTLSKADYEKHKVYACEVTHQGLSSPVTKSFNRGEC
light 2: EVQLVESGGGLVQPGGSLRLSCAASGYSFTGYTMNWVRQAPGKGLEWVALINPYKGVSTYNQKFKDRFTISVDKSKNTAYLQMNSLRAEDTAVYYCARSGYYGDSDWYFDVWGQGTLVTVSSASVAAPSVFIFPPSDEQLKSGTASVVCLLNNFYPREAKVQWKVDNALQSGNSQESVTEQDSKDSTYSLSSTLTLSKADYEKHKVYACEVTHQGLSSPVTKSFNRGEC
notes: also called 2+1 IgG Crossfab (V9)
B2: CD3/MCSP “2+1 IgG Crossfab, inverted”; CL/CH1 exchange (LC007/V9) (bispecific antibody)
heavy 1: not shown
heavy 2: EVQLQESGPGLVKPSQSLSLTCSVTGYSITSGYYWNWIRQFPGNKLEWMGYITYDGSNNYNPSLKNRISITRDTSKNQFFLKLNSVTTEDTATYYCADFDYWGQGTTLTVSSASTKGPSVFPLAPSSKSTSGGTAALGCLVKDYFPEPVTVSWNSGALTSGVHTFPAVLQSSGLYSLSSVVTVPSSSLGTQTYICNVNHKPSNTKVDKKVEPKSCDKTHTCPPCPAPEAAGGPSVFLFPPKPKDTLMISRTPEVTCVVVDVSHEDPEVKFNWYVDGVEVHNAKTKPREEQYNSTYRVVSVLTVLHQDWLNGKEYKCKVSNKALGAPIEKTISKAKGQPREPQVCTLPPSRDELTKNQVSLSCAVKGFYPSDIAVEWESNGQPENNYKTTPPVLDSDGSFFLVSKLTVDKSRWQQGNVFSCSVMHEALHNHYTQKSLSLSPGK
light 1: DIVLTQSPSSLSASLGDRVTISCSASQGIRNYLNWYQQRPDGTVKLLIYYTSSLHSGVPSRFSGSGSGTDYSLTISNLEPEDIATYYCQQYSKLPWTFGGGTKLEIKRTVAAPSVFIFPPSDEQLKSGTASVVCLLNNFYPREAKVQWKVDNALQSGNSQESVTEQDSKDSTYSLSSTLTLSKADYEKHKVYACEVTHQGLSSPVTKSFNRGEC
light 2: DIQMTQSPSSLSASVGDRVTITCRASQDIRNYLNWYQQKPGKAPKLLIYYTSRLESGVPSRFSGSGSGTDYTLTISSLQPEDFATYYCQQGNTLPWTFGQGTKVEIKSSASTKGPSVFPLAPSSKSTSGGTAALGCLVKDYFPEPVTVSWNSGALTSGVHTFPAVLQSSGLYSLSSVVTVPSSSLGTQTYICNVNHKPSNTKVDKKVEPKSC
notes: also called 2+1 IgG Crossfab, inverted (V9)
B3: “2+1 IgG Crossfab”; CL/CH1 exchange (LC007/anti-CD3) (bispecific antibody)
heavy 1: not shown
heavy 2: EVQLQESGPGLVKPSQSLSLTCSVTGYSITSGYYWNWIRQFPGNKLEWMGYITYDGSNNYNPSLKNRISITRDTSKNQFFLKLNSVTTEDTATYYCADFDYWGQGTTLTVSSASTKGPSVFPLAPSSKSTSGGTAALGCLVKDYFPEPVTVSWNSGALTSGVHTFPAVLQSSGLYSLSSVVTVPSSSLGTQTYICNVNHKPSNTKVDKKVEPKSCDKTHTCPPCPAPEAAGGPSVFLFPPKPKDTLMISRTPEVTCVVVDVSHEDPEVKFNWYVDGVEVHNAKTKPREEQYNSTYRVVSVLTVLHQDWLNGKEYKCKVSNKALGAPIEKTISKAKGQPREPQVCTLPPSRDELTKNQVSLSCAVKGFYPSDIAVEWESNGQPENNYKTTPPVLDSDGSFFLVSKLTVDKSRWQQGNVFSCSVMHEALHNHYTQKSLSLSPGK
light 1: DIVLTQSPSSLSASLGDRVTISCSASQGIRNYLNWYQQRPDGTVKLLIYYTSSLHSGVPSRFSGSGSGTDYSLTISNLEPEDIATYYCQQYSKLPWTFGGGTKLEIKRTVAAPSVFIFPPSDEQLKSGTASVVCLLNNFYPREAKVQWKVDNALQSGNSQESVTEQDSKDSTYSLSSTLTLSKADYEKHKVYACEVTHQGLSSPVTKSFNRGEC
light 2: QAVVTQESALTTSPGETVTLTCRSSTGAVTTSNYANWVQEKPDHLFTGLIGGTNKRAPGVPARFSGSLIGDKAALTITGAQTEDEAIYFCALWYSNLWVFGGGTKLTVLSSASTKGPSVFPLAPSSKSTSGGTAALGCLVKDYFPEPVTVSWNSGALTSGVHTFPAVLQSSGLYSLSSVVTVPSSSLGTQTYICNVNHKPSNTKVDKKVEPKSC
notes: also called 2+1 IgG Crossfab (anti-CD3)
B4: “2+1 IgG Crossfab, inverted”; CL/CH1 exchange (LC007/anti-CD3) (bispecific antibody)
heavy 1: not shown
heavy 2: EVQLQESGPGLVKPSQSLSLTCSVTGYSITSGYYWNWIRQFPGNKLEWMGYITYDGSNNYNPSLKNRISITRDTSKNQFFLKLNSVTTEDTATYYCADFDYWGQGTTLTVSSASTKGPSVFPLAPSSKSTSGGTAALGCLVKDYFPEPVTVSWNSGALTSGVHTFPAVLQSSGLYSLSSVVTVPSSSLGTQTYICNVNHKPSNTKVDKKVEPKSCDKTHTCPPCPAPEAAGGPSVFLFPPKPKDTLMISRTPEVTCVVVDVSHEDPEVKFNWYVDGVEVHNAKTKPREEQYNSTYRVVSVLTVLHQDWLNGKEYKCKVSNKALGAPIEKTISKAKGQPREPQVCTLPPSRDELTKNQVSLSCAVKGFYPSDIAVEWESNGQPENNYKTTPPVLDSDGSFFLVSKLTVDKSRWQQGNVFSCSVMHEALHNHYTQKSLSLSPGK
light 1: DIVLTQSPSSLSASLGDRVTISCSASQGIRNYLNWYQQRPDGTVKLLIYYTSSLHSGVPSRFSGSGSGTDYSLTISNLEPEDIATYYCQQYSKLPWTFGGGTKLEIKRTVAAPSVFIFPPSDEQLKSGTASVVCLLNNFYPREAKVQWKVDNALQSGNSQESVTEQDSKDSTYSLSSTLTLSKADYEKHKVYACEVTHQGLSSPVTKSFNRGEC
light 2: QAVVTQESALTTSPGETVTLTCRSSTGAVTTSNYANWVQEKPDHLFTGLIGGTNKRAPGVPARFSGSLIGDKAALTITGAQTEDEAIYFCALWYSNLWVFGGGTKLTVLSSASTKGPSVFPLAPSSKSTSGGTAALGCLVKDYFPEPVTVSWNSGALTSGVHTFPAVLQSSGLYSLSSVVTVPSSSLGTQTYICNVNHKPSNTKVDKKVEPKSC
notes: also called 2+1 IgG Crossfab, inverted (anti-CD3)

Key:
[1] = target: T1, human MCSP expressed on tumor cells (human, UniProt Q6UVK1 30-2322); test: cell-based or functional assay
T1 sequence (Q6UVK1 30-2322): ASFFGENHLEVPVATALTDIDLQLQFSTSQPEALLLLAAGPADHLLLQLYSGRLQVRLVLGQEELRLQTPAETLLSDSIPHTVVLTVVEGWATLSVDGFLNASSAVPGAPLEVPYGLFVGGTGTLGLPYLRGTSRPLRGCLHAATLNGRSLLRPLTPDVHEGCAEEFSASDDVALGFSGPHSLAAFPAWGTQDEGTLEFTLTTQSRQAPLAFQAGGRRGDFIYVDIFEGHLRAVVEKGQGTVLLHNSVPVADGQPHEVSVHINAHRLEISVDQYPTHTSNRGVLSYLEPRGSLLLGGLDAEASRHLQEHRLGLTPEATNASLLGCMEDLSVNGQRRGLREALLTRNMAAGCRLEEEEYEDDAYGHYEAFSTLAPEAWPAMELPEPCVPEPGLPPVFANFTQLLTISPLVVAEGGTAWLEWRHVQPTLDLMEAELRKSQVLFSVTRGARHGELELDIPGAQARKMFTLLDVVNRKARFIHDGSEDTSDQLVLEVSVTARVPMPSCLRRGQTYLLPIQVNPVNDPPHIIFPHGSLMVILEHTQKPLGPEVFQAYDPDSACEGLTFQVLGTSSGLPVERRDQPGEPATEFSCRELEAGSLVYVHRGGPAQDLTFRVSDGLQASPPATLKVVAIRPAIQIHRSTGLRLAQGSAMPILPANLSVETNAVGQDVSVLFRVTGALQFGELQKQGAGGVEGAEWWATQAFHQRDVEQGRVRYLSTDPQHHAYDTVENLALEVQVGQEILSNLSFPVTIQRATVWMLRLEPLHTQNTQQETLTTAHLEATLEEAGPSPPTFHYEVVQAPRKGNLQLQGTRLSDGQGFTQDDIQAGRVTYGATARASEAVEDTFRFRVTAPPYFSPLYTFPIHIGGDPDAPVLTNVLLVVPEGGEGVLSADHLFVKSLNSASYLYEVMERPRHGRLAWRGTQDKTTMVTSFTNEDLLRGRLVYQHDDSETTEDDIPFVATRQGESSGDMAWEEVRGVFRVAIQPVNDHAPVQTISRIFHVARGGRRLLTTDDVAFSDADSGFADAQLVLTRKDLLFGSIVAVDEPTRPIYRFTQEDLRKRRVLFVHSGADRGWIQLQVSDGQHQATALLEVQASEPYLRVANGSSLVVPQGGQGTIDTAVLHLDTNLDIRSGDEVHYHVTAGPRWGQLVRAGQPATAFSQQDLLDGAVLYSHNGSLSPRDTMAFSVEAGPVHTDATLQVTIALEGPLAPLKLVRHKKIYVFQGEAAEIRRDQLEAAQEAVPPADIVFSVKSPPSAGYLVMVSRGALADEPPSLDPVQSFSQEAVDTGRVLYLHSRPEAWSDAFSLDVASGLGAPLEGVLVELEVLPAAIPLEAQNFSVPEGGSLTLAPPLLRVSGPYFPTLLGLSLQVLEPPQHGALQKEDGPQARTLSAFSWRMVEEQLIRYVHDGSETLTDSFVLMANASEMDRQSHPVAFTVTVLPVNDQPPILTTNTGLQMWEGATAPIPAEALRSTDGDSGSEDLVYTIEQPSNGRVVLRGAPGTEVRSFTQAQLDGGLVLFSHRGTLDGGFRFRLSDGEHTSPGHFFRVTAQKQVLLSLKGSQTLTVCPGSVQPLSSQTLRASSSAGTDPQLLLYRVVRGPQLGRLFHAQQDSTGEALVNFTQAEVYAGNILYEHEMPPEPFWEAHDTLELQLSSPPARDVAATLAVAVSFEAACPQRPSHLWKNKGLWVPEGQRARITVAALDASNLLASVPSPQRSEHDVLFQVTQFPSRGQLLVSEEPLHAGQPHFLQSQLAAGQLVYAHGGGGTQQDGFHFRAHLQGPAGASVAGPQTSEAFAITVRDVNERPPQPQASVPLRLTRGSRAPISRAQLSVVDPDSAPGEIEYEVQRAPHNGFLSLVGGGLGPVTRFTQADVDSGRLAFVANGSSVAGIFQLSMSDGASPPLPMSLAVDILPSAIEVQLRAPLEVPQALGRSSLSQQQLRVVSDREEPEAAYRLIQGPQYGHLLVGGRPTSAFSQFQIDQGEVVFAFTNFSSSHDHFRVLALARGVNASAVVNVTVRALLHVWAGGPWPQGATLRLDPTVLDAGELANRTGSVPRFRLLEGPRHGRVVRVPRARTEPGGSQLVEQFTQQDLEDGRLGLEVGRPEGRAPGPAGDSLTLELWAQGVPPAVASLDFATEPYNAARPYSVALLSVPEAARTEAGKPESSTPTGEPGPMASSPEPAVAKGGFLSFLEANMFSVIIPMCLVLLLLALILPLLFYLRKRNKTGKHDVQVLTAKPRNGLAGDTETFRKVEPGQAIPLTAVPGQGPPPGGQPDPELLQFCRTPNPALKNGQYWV

[2] = target: T1, human MCSP expressed on tumor cells; test: cell-based or functional assay; remark: listed apart in the source
[3] = target: T2, human CD3 expressed on Jurkat cells (human, UniProt P07766 23-207); test: flow cytometry on Jurkat cells
T2 construct: CD3 complex on Jurkat cells (ATCC TIB-152); also called huCD3
T2 sequence (P07766 23-207 limits assumed): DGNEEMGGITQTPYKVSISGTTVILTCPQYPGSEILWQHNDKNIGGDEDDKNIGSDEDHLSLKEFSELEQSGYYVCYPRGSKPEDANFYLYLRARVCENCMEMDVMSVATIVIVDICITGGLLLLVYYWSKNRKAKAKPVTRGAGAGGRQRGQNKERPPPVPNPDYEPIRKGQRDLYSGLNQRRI
Description: (§1) Binding of the different bispecific constructs to CD3 on Jurkat cells (ATCC #TIB-152), and the respective tumor antigen on target cells, was determined by FACS. Briefly, cells were harvested, counted and checked for viability. 0.15 - 0.2 million cells per well (in PBS containing 0.1% BSA; 90 µl) were plated in a round-bottom 96-well plate and incubated with the indicated concentration of the bispecific constructs and corresponding IgG controls (10 µl) for 30 min at 4° C. For a better comparison, all constructs and IgG controls were normalized to same molarity. After the incubation, cells were centrifuged (5 min, 350 × g), washed with 150 µl PBS containing 0.1% BSA, resuspended and incubated for further 30 min at 4° C. with 12 µl/well of a FITC-or PE-conjugated secondary antibody. Bound constructs were detected using a FACSCantoII (Software FACS Diva). The “(scFv)₂” molecule was detected using a FITC-conjugated anti-His antibody (Lucerna, #RHIS-45F-Z). For all other molecules, a FITC- or PE-conjugated AffiniPure F(ab′)2 Fragment goat anti-human IgG Fcγ Fragment Specific (Jackson Immuno Research Lab # 109-096-098 / working solution 1:20, or #109-116-170 / working solution 1:80, respectively) was used. Cells were washed by addition of 120 µl/well PBS containing 0.1% BSA and centrifugation at 350 × g for 5 min. A second washing step was performed with 150 µl/well PBS containing 0.1% BSA. Unless otherwise indicated, cells were fixed with 100 µl/well fixation buffer (BD #554655) for 15 min at 4° C. in the dark, centrifuged for 6 min at 400 × g and kept in 200 µl/well PBS containing 0.1% BSA until the samples were measured with FACS CantoII. EC50 values were calculated using the GraphPad Prism software.
As a control, the equivalent maximum concentration of the corresponding IgGs and the background staining due to the labeled 2ndary antibody (goat anti-human FITC-conjugated AffiniPure F(ab′)2 Fragment, Fcγ Fragment-specific, Jackson Immuno Research Lab # 109-096-098) were assessed as well.

[4] = target: T1, human MCSP expressed on tumor cells; test: flow cytometry on WM266-4 cells
Description: as §1
In a final experiment, binding of the “2+1 IgG Crossfab” (SEQ ID NOs 5, 23, 215, 217) and the “2+1 IgG Crossfab, inverted” (SEQ ID NOs 5, 23, 215, 219) constructs to human CD3, expressed by Jurkat cells, and to human MCSP, expressed by WM266-4 tumor cells was determined. As depicted in FIG. 58A and FIG. 58B the binding to human CD3 was reduced for the “2+1 IgG Crossfab, inverted” compared to the other construct, but the binding to human MCSP was comparably good.

| Binder | EC50 of killing (LDH release) of MV-3 cells, human PBMCs, E:T 10:1, 21 h [1] | EC50 of killing (LDH release) of WM266-4 cells, human PBMCs, E:T 10:1, 21 h [1] | EC50 [pM] of killing (LDH release) of MV-3 cells, human PBMCs, E:T 10:1, about 24 h [2] | EC50 [pM] of killing (LDH release) of WM266-4 cells, human PBMCs, E:T 10:1, about 24 h [2] | EC50 [3] | EC50 [4] |
| --- | --- | --- | --- | --- | --- | --- |
| B1 | 0.0092 nM | 0.0331 nM | 10 pM | 12.4 pM | 1.66 nM | 0.95 nM |
| B2 | – | – | 4.1 pM | 3.7 pM | 6.1 nM | 0.57 nM |
| B3 | – | – | 11 pM | 11.3 pM | 10.3 nM | 3.1 nM |
| B4 | – | – | 3 pM | 7.1 pM | 32 nM | 3.4 nM |
